Data: publication PMC3778974 (Cell, 2013)
Where two headings read alike, the source gives them in different places.

T1: Def1_(1-500), recombinant (Def1_(1-500)-His) (S. cerevisiae, UniProt P35732 1-500)
T1 sequence (looked up): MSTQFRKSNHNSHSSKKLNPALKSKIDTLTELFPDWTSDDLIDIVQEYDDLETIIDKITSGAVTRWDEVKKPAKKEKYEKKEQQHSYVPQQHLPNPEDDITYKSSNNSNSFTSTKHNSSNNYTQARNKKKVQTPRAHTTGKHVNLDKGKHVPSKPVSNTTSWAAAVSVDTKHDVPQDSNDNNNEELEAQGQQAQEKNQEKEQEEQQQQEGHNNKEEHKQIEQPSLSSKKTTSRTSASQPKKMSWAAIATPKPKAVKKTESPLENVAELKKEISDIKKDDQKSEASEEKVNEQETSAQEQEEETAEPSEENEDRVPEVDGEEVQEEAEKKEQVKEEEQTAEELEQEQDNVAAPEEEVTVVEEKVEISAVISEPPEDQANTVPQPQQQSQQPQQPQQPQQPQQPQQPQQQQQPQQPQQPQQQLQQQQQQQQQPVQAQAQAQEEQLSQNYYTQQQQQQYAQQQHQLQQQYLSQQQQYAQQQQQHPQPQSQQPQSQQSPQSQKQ


Tests used:
[1] = biological target: T1, Def1_(1-500), recombinant …; experiment: pull-down
[2] = biological target: T1, Def1_(1-500), recombinant …; experiment: pull-down; remark: listed apart in the source

| binding result [1] | binding result [2] | Binder |
| --- | --- | --- |
| binds | – | GST-Ela1_(250–379) (domain or fragment, S. cerevisiae, UniProt P53861 250-379, looked up) VNRQMDNVTAEKKDVTQPITPVKKRRSESPSIFLNRKKPALFRPTPKTNAAGSRPHTTAITNDHRTTSHPYPHKDVVTSISSVTANPVTKGHKKKKSGIFVRNAGSDGDSFPHVTATGPTTRPYIYEPRK |
| – | binds | recombinant Ela1-Elc1 heterodimer (full-length His-Ela1 with Elc1) (complex, S. cerevisiae) chain 1: MKSLQTLCEISLMRNHSNIQSVSNVPYHLLKRILQKVKIPQLLKLEKSNVLLIFDDDELWLEFLRQDFPTNVHEQFVSKRDIICKYYFDFVKENDIELYHSNQDLLKSCVRQSVVKDIRNNKYRIPYRMLYSKYQQEVEKKQEESAERLRLEMQKLQQEREKKQTIVVDHTVYFKKRNTKKTTRLHNEPHSQLYMKSLKDHESRLKHFKDGGFNIAKRHAQRVAFGGQAGGQSSSPKKGPLSIKPEPVKVNRQMDNVTAEKKDVTQPITPVKKRRSESPSIFLNRKKPALFRPTPKTNAAGSRPHTTAITNDHRTTSHPYPHKDVVTSISSVTANPVTKGHKKKKSGIFVRNAGSDGDSFPHVTATGPTTRPYIYEPRK chain 2: MSQDFVTLVSKDDKEYEISRSAAMISPTLKAMIEGPFRESKGRIELKQFDSHILEKAVEYLNYNLKYSGVSEDDDEIPEFEIPTEMSLELLLAADYLSI |
